The results in this text go back to patent US20220174981A1, “PROLINE TOLERANT TRIPEPTIDYL PEPTIDASES AND USES THEREOF” (DuPont Nutrition Biosciences APS, priority 2014, published 2022).

This experiment has as its system H-Ala-Ala-Phe-pNA. Nature of the experiment: Low pH stability of tripeptidyl peptidases (pH 2.5, 40° C., 60 min), activity on H-Ala-Ala-Phe-pNA. The format is biochemical. The settings on record: for OD410nm (Final): after pH 2.5, 40° C., 60 min; for OD410nm (Initial): without incubation at 40° C. for 60 min. How it is done: As requirements for utilization of the enzymes in feed for monogastric animals, the enzymes should be active at lower pH. For this reason the number of tripeptidyl peptidases has been tested with the reaction on synthetic substrate AAF (H-Ala-Ala-Phe-pNA. BACHEM, L-1095), at pH 2.5.
The tripeptide substrate AAF was prepared at 2.5 mg/ml in DMSO. Tripeptidyl peptidases were used as broth. The reaction mixture containing 2.5 μl enzyme and 90 μL glycine acetic acid-Tris buffer (each buffer components at 50 mM, pH 2.5) was prepared in 96 well incubation plates.
The incubation plate was mixed and incubated at 40° C. for 60 min. Then 50 μl 0.2M Mes-NaOH pH6.0 was added to each well, mixed at 600 rpm for 2 min. After that, 5 ul of the incubation mixture were taken to 96 well assay plate already filled with 85 μl 0.1M acetic acid buffer, pH4.0 and 5 μl 2.5 mg/ml AAF substrate solution.
The reaction mixture was stirred at 600 rpm for 2 min and read directly in a microplate reader (Molecular Devices, Denmark) at 410 nm at 30° C. every 30 second for 15 min.
To measure initial enzyme activity, similar procedure was performed except the step of enzyme incubation at 40° C. for 60 min.

B1: TRI053.1: tripeptidyl peptidase, SEQ ID No. 10/SEQ ID No. 37, used as broth (protein, listed as Aspergillus kawachii)
chain 1: VVHEKLAAVPSGWHHLEDAGSDHQISLSIALARKNLDQLESKLKDLSTPGESQYGQWLDQEEVDTLFPVASDKAVISWLRSANITHIARQGSLVNFATTVDKVNKLLNTTFAYYQRGSSQRLRTTEYSIPDDLVDSIDLISPTTFFGKEKTSAGLTQRSQKVDNHVAKRSNSSSCADTITLSCLKEMYNFGNYTPSASSGSKLGFASFLNESASYSDLAKFERLFNLPSQNFSVELINGGVNDQNQSTASLTEADLDVELLVGVGHPLPVTEFITSGEPPFIPDPDEPSAADNENEPYLQYYEYLLSKPNSALPQVISNSYGDDEQTVPEYYAKRVCNLIGLVGLRGISVLESSGDEGIGSGCRTTDGTNSTQFNPIFPATCPYVTAVGGTMSYAPEIAWEASSGGFSNYFERAWFQKEAVQNYLANHITNETKQYYSQFANFSGRGFPDVSAHSFEPSYEVIFYGARYGSGGTSAACPLFSALVGMLNDARLRAGKSTLGFLNPLLYSKGYKALTDVTAGQSIGCNGIDPQSDEAVAGAGIIPWAHWNATVGWDPVTGLGLPDFEKLRQLVLSL
chain 2: CADTITLSCLKEMYNFGNYTPSASSGSKLGFASFLNESASYSDLAKFERLFNLPSQNFSVELINGGVNDQNQSTASLTEADLDVELLVGVGHPLPVTEFITSGEPPFIPDPDEPSAADNENEPYLQYYEYLLSKPNSALPQVISNSYGDDEQTVPEYYAKRVCNLIGLVGLRGISVLESSGDEGIGSGCRTTDGTNSTQFNPIFPATCPYVTAVGGTMSYAPEIAWEASSGGFSNYFERAWFQKEAVQNYLANHITNETKQYYSQFANFSGRGFPDVSAHSFEPSYEVIFYGARYGSGGTSAACPLFSALVGMLNDARLRAGKSTLGFLNPLLYSKGYKALTDVTAGQSIGCNGIDPQSDEAVAGAGIIPWAHWNATVGWDPVTGLGLPDFEKLRQLVLS
modifications: used as fermentation broth
Turning to B1, the “OD410nm (Final)” value stood at 0.356 and the “OD410nm (Initial)” value is 0.345.

B2: TRI050: tripeptidyl peptidase, SEQ ID No. 7/SEQ ID No. 34, used as broth (protein, listed as Fusarium graminearum)
chain 1: KSYSHHAEAPKGWKVDDTARVASTGKQQVFSIALTMQNVDQLESKLLDLSSPDSKNYGQWMSQKDVTTAFYPSKEAVSSVTKWLKSKGVKHYNVNGGFIDFALDVKGANALLDSDYQYYTKEGQTKLRTLSYSIPDDVAEHVQFVDPSTNFGGTLAFAPVTHPSRTLTERKNKPTKSTVDASCQTSITPSCLKQMYNIGDYTPKVESGSTIGFSSFLGESAIYSDVFLFEEKFGIPTQNFTTVLINNGTDDQNTAHKNFGEADLDAENIVGIAHPLPFTQYITGGSPPFLPNIDQPTAADNQNEPYVPFFRYLLSQKEVPAVVSTSYGDEEDSVPREYATMTCNLIGLLGLRGISVIFSSGDIGVGAGCLGPDHKTVEFNAIFPATCPYLTSVGGTVDVTPEIAWEGSSGGFSKYFPRPSYQDKAVKTYMKTVSKQTKKYYGPYTNWEGRGFPDVAGHSVSPNYEVIYAGKQSASGGTSAAAPVWAAIVGLLNDARFRAGKPSLGWLNPLVYKYGPKVLTDITGGYAIGCDGNNTQSGKPEPAGSGIVPGARWNATAGWDPVTGYGTPDFGKLKDLVLSF
chain 2: CQTSITPSCLKQMYNIGDYTPKVESGSTIGFSSFLGESAIYSDVFLFEEKFGIPTQNFTTVLINNGTDDQNTAHKNFGEADLDAENIVGIAHPLPFTQYITGGSPPFLPNIDQPTAADNQNEPYVPFFRYLLSQKEVPAVVSTSYGDEEDSVPREYATMTCNLIGLLGLRGISVIFSSGDIGVGAGCLGPDHKTVEFNAIFPATCPYLTSVGGTVDVTPEIAWEGSSGGFSKYFPRPSYQDKAVKTYMKTVSKQTKKYYGPYTNWEGRGFPDVAGHSVSPNYEVIYAGKQSASGGTSAAAPVWAAIVGLLNDARFRAGKPSLGWLNPLVYKYGPKVLTDITGGYAIGCDGNNTQSGKPEPAGSGIVPGARWNATAGWDPVTGYGTPDFGKLKDLVLS
modifications: used as fermentation broth
Take B2: the “OD410nm (Final)” value was 0.814 and the “OD410nm (Initial)” value amounted to 0.895. For the setting “listed as TRI050.3”, the “OD410nm (Final)” value is on record as 0.501 and the “OD410nm (Initial)” value was 0.603.
